Measurements published in paper PMC3688267 (Nature structural & molecular biology, 2011).

Tests used:
Assay in all cases: ITC
[1] = target: T1, human RAP1RCT (RAP1 C-terminal RCT domain, residues 303-399) (human, UniProt Q9NYB0 303-399)
T1 sequence (looked up): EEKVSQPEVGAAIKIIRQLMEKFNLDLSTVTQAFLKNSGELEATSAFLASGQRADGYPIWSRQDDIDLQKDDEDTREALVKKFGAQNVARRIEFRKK

[2] = target: T2, S. pombe SpRap1RCT (SpRap1 residues 639-693) (S. pombe, UniProt Q96TL7 639-693)
T2 sequence (looked up): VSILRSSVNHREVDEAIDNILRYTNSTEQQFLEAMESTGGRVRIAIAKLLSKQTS

SpRap1RCT V651R = target: T3, SpRap1RCT V651R (S. pombe, UniProt Q96TL7 639-693, V651R)
T3 sequence (looked up): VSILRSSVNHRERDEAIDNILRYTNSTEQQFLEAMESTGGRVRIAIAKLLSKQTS

[3] = target: T4, S. cerevisiae ScRap1RCT (ScRap1 residues 679-827) (S. cerevisiae, UniProt P11938 679-827)
T4 sequence (looked up): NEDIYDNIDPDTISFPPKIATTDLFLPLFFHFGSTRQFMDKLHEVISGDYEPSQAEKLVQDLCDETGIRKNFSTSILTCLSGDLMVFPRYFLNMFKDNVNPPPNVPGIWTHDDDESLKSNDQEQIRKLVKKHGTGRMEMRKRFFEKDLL

B1: full-length TRF2 protein (natural protein)
chain: MAGGGGSSDGSGRAAGRRASRSSGRARRGRHEPGLGGPAERGAGEARLEEAVNRWVLKFYFHEALRAFRGSRYGDFRQIRDIMQALLVRPLGKEHTVSRLLRVMQCLSRIEEGENLDCSFDMEAELTPLESAINVLEMIKTEFTLTEAVVESSRKLVKEAAVIICIKNKEFEKASKILKKHMSKDPTTQKLRNDLLNIIREKNLAHPVIQNFSYETFQQKMLRFLESHLDDAEPYLLTMAKKALKSESAASSTGKEDKQPAPGPVEKPPREPARQLRNPPTTIGMMTLKAAFKTLSGAQDSEAAFAKLDQKDLVLPTQALPASPALKNKRPRKDENESSAPADGEGGSELQPKNKRMTISRLVLEEDSQSTEPSAGLNSSQEAASAPPSKPTVLNQPLPGEKNPKVPKGKWNSSNGVEEKETWVEEDELFQVQAAPDEDSTTNITKKQKWTVEESEWVKAGVQKYGEGNWAAISKNYPFVNRTAVMIKDRWRTMKRLGMN
Binder B1 has a Kd [1] of 23.9 nM.

B2: S. pombe Taz1RBM (Taz1 residues 365-396) (domain or fragment, UniProt P79005 365-396, looked up)
chain: LSVKGMLYDSDSQQILNRLRERVSGSTAQSAD
With B2 the Kd [2] was 2000 nM and the binding result (SpRap1RCT V651R) was “binds”.

B3: Taz1RBM V387R (domain or fragment, S. pombe, UniProt P79005 365-396, looked up)
chain: LSVKGMLYDSDSQQILNRLRERRSGSTAQSAD
B3: binds [2].

B4: Taz1RBM L380R (domain or fragment, S. pombe, UniProt P79005 365-396, looked up)
chain: LSVKGMLYDSDSQQIRNRLRERVSGSTAQSAD
B4: binds [2].

B5: human TRF2RBM (RAP1-binding motif, TRF2 residues 275-316) (domain or fragment)
chain: QLRNPPTTIGMMTLKAAFKTLSGAQDSEAAFAKLDQKDLVLP
For B5, the Kd [1] was 16.5 nM.

B6: S. cerevisiae Sir3RBM (Sir3 residues 456-481) (peptide, UniProt P06701 456-481, looked up)
chain: EKGNAKMIDFATLSKLKKKYQIILDR
Binder B6 has a Kd [3] of roughly 1800 nM.
